Legend:
[1] = target: C3 mutant with gly(G) at position 1303 and glutamine at 1320
[2] = target: E1Q2 mutant C3 (Arg1303 changed to Glu, plus Arg1320 changed to Gln)
[3] = target: mutant C3M-I23 (Arg1303->Gln)
[4] = target: C3 mutant with trp(W) at position 1303 and glutamine at 1320
[5] = target: mutant C3M-26 (Arg1303->Gln, Arg1320->Gln)
[6] = target: wild-type human C3 (expressed from the PC3 coding sequence)
[7] = target: C3 mutant with tyr(Y) at position 1303 and glutamine at 1320
[8] = target: C3 mutant with cys(C) at position 1303 and glutamine at 1320
[9] = target: mutant C3M-51 (Arg1320->Gln)
Chain of mutant C3M-51 (Arg1320->Gln) (chain, as listed by the source, stated change not applied, chain 1 of 2): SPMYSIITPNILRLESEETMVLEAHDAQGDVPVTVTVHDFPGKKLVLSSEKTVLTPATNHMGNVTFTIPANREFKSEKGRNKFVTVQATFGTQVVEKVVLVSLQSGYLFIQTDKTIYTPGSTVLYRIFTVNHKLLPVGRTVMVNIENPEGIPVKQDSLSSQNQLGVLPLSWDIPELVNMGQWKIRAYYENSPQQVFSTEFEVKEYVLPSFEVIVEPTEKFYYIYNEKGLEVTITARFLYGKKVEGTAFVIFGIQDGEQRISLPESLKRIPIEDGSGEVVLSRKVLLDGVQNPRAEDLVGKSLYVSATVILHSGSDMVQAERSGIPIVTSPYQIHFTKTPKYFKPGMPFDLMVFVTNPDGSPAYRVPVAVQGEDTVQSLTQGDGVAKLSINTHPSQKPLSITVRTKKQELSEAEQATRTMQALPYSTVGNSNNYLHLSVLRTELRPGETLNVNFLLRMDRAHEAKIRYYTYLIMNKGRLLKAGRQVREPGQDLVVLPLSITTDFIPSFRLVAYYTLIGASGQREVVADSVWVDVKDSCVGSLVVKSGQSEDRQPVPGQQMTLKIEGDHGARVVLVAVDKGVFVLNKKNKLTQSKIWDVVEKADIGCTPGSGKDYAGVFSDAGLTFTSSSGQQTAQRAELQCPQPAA
Chain of mutant C3M-51 (Arg1320->Gln) (chain, as listed by the source, stated change not applied, chain 2 of 2): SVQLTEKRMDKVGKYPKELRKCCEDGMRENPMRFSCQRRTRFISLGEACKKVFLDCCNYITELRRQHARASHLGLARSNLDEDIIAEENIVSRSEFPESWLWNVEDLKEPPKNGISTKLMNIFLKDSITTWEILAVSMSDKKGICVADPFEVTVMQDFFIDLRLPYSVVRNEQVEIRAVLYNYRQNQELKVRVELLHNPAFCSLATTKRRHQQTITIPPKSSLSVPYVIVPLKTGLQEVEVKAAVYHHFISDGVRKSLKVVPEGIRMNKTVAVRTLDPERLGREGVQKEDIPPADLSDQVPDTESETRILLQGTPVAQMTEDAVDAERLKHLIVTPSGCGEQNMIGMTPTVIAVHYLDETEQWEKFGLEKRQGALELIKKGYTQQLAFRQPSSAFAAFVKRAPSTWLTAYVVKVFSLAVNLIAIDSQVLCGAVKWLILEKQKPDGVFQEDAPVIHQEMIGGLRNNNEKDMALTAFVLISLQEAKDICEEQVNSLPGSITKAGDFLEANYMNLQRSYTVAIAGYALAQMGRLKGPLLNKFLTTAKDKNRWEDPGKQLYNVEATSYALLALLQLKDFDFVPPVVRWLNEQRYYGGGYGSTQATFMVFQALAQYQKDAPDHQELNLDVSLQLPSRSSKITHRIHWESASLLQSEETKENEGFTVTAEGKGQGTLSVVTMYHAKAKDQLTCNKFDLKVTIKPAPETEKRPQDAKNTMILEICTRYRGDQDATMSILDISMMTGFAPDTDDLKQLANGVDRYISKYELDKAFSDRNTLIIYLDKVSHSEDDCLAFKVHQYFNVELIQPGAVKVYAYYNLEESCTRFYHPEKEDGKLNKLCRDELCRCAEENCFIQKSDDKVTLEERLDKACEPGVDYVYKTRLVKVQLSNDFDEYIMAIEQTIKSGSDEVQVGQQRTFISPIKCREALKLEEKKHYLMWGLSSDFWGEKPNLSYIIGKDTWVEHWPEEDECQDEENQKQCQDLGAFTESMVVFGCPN

Chain of mutant C3M-26 (Arg1303->Gln, Arg1320->Gln) (chain, as listed by the source, stated change not applied, chain 1 of 2): as the sequence (chain, as listed by the source, stated change not applied, chain 1 of 2) above
Chain of mutant C3M-26 (Arg1303->Gln, Arg1320->Gln) (chain, as listed by the source, stated change not applied, chain 2 of 2): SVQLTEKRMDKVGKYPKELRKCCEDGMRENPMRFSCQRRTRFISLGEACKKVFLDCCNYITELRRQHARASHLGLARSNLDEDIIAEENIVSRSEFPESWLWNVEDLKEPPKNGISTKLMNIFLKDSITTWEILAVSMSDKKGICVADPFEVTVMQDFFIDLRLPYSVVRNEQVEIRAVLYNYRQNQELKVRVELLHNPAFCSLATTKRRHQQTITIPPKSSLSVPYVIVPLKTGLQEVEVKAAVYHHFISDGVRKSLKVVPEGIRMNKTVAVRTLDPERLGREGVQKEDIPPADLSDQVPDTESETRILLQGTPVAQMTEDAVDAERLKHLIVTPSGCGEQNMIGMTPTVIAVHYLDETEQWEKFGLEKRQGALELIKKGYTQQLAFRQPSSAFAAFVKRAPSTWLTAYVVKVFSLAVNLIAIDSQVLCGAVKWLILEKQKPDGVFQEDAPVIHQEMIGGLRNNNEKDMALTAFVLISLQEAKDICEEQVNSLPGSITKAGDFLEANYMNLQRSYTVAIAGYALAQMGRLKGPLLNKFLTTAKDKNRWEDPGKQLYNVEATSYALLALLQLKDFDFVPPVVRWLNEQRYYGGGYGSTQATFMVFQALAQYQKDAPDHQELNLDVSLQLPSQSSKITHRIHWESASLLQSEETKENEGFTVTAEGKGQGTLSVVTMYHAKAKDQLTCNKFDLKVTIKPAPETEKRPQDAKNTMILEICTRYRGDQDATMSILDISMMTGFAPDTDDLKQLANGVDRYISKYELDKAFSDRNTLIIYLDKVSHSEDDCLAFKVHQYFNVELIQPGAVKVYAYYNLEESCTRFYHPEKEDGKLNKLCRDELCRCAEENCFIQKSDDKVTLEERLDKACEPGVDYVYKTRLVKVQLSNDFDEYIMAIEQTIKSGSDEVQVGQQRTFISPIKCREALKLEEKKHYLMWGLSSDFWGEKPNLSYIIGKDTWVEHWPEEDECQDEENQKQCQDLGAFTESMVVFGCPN
Chain of C3 mutant with gly(G) at position 1303 and glutamine at 1320 (chain, as listed by the source mutant, chain 1 of 2): as the sequence (chain, as listed by the source, stated change not applied, chain 1 of 2) above
Chain of C3 mutant with gly(G) at position 1303 and glutamine at 1320 (chain, as listed by the source mutant, chain 2 of 2): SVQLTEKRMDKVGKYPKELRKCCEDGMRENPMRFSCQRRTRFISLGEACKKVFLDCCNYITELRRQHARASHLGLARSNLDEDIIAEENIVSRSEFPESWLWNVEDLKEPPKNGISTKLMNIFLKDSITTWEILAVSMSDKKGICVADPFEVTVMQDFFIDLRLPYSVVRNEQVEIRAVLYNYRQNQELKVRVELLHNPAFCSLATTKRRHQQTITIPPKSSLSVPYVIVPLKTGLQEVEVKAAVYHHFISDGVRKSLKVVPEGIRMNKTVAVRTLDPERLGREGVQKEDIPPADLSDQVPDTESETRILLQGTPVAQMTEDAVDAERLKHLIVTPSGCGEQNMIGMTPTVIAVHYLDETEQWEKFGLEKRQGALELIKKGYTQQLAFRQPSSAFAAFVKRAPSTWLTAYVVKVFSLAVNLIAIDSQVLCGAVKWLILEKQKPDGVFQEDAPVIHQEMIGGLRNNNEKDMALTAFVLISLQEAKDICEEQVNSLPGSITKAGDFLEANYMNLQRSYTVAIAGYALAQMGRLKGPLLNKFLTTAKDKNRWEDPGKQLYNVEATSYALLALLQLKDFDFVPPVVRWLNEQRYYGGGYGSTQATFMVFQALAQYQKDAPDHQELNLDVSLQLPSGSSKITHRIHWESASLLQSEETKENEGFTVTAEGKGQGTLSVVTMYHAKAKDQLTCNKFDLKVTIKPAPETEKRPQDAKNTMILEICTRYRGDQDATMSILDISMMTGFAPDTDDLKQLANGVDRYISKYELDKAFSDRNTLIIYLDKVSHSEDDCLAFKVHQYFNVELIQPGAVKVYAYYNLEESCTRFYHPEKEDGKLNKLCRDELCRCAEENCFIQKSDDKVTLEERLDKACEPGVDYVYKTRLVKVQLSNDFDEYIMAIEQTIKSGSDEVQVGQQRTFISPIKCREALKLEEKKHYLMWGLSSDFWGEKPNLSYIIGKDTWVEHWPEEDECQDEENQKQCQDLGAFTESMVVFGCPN

B1: factor I (protein)
chain: KVTYTSQEDLVEKKCLAKKYTHLSCDKVFCQPWQRCIEGTCVCKLPYQCPKNGTAVCATNRRSFPTYCQQKSLECLHPGTKFLNNGTCTAEGKFSVSLKHGNTDSEGIVEVKLVDQDKTMFICKSSWSMREANVACLDLGFQQGADTQRRFKLSDLSINSTECLHVHCRGLETSLAECTFTKRRTMGYQDFADVVCYTQKADSPMDDFFQCVNGKYISQMKACDGINDCGDQSDELCCKACQGKGFHCKSGVCIPSQYQCNGEVDCITGEDEVGCAGFASVTQEETEILTADMDAERRRIKSLLPKLSCGVKNRMHIRRKRIVGGKRAQLGDLPWQVAIKDASGITCGGIYIGGCWILTAAHCLRASKTHRYQIWTTVVDWIHPDLKRIVIEYVDRIIFHENYNAGTYQNDIALIEMKKDGNKKDCELPRSIPACVPWSPYLFQPNDTCIVSGWGREKDNERVFSLQWGEVKLISNCSKFYGNRFYEKEMECAGTYDGSIDACKGDSGGPLVCMDANNVTYVWGVVSWGENCGKPEFPGVYTKVANYFDWISYHVGRPFISQYNV
Factor I-mediated cleavage at position 1303 (35S label, SDS-PAGE, autoradiography) [1]: cleavage occurs in the order: arg(R)>tyr(Y)>cys(C) and trp(W)>gln(Q)>gly(G) and glu(E)
Factor I-mediated cleavage at position 1303 (35S label, SDS-PAGE, autoradiography) [2]: cleavage occurs in the order: arg(R)>tyr(Y)>cys(C) and trp(W)>gln(Q)>gly(G) and glu(E)
cleavage of the C3b-like product by factors H and I (immunoprecipitation, western blot) [3]: no 68 kDa band was present, showing that this mutant is resistant to cleavage at the mutated Gln1303
Factor I-mediated cleavage at position 1303 (35S label, SDS-PAGE, autoradiography) [4]: cleavage occurs in the order: arg(R)>tyr(Y)>cys(C) and trp(W)>gln(Q)>gly(G) and glu(E)
Factor I-mediated cleavage at position 1303 (35S label, SDS-PAGE, autoradiography) [5]: cleavage occurs in the order: arg(R)>tyr(Y)>cys(C) and trp(W)>gln(Q)>gly(G) and glu(E)
cleavage of the C3b-like product by factors H and I (immunoprecipitation, western blot) [5]: It was also very resistant to the additional factors H and I (3-D) in comparison with the unmutated C3 (1) and other mutants (2 and 4)
cleavage of the C3b product by factors H and I (immunoprecipitation, western blot) [6]: the C3b product is further cleaved by endogenous enzymes in 1-B or added factors H and I in 1-D. The 43 kDa band indicates cleavage at Arg1320, and the 68 kDa band (visible in longer exposures) indicates cleavage at Arg1303
Factor I-mediated cleavage at position 1303 (35S label, SDS-PAGE, autoradiography) [7]: cleavage occurs in the order: arg(R)>tyr(Y)>cys(C) and trp(W)>gln(Q)>gly(G) and glu(E)
Factor I-mediated cleavage at position 1303 (35S label, SDS-PAGE, autoradiography) [8]: cleavage occurs in the order: arg(R)>tyr(Y)>cys(C) and trp(W)>gln(Q)>gly(G) and glu(E)
Factor I-mediated cleavage at position 1303 (35S label, SDS-PAGE, autoradiography) [9]: cleavage occurs in the order: arg(R)>tyr(Y)>cys(C) and trp(W)>gln(Q)>gly(G) and glu(E)
cleavage of the C3b-like product by factors H and I (immunoprecipitation, western blot) [9]: the absence of a 43 kDa band indicates that it is not cleaved at the mutated Gln1320

From US7002001
